Stoichiometry N data for 2 substances are collected here from paper PMC11957051.

Test [1] has as its target P. aeruginosa RloA2, PA0462 (18–169) (P. aeruginosa). Description: SEC-MALS. (In general: SEC sorts molecules by how far they enter the pores of the column.)
Test [2] concerns the target P. fluorescens RloA, Pfl01_1762 (20–178) (P. fluorescens). Nature of the test: SEC-MALS.

On to “P. aeruginosa RloA2, PA0462 (18–169) (enzyme)”, for which, in test [1], the stoichiometry N – broadly, a count of units in the complex or per binding partner – was determined as 2.

Turning to “P. fluorescens RloA, Pfl01_1762 (20–178) (enzyme)”, in test [2], the stoichiometry N was determined as 2.
